Key:
[1] = molecular target: T1, recombinant human C5 (human, UniProt P01031 20-1676); assay: SPR (BIACORE T200), ratio of kd of condition (2) and (1)
T1 construct: The same entry is used here for C5 in normal human serum in the functional rows; also called hC5; rhC5

[2] = molecular target: T2, recombinant MG1-MG2 domain of human C5 beta-chain (human, UniProt P01031 20-225); assay: SPR (BIACORE T200), antibody captured, MG1-MG2 domain injected, pH7.4, 37 degrees C
T2 construct: also called MG1-MG2 domain (1-225) of human C5

| pH dependency (ratio of dissociation rate at pH5.8 to that at pH7.4) [1] | binding result [2] | Binder |
| --- | --- | --- |
| 20.2 | – | 305LO23-SG115 (antibody, V domains shown) VH: QVQLVESGGGLVQPGGSLRLSCAASGFTVHSSYYMAWVRQAPGKGLEWVSGIFTGSGATYKAEWAKGRVTISKDTSKNQVVLTMTNMDPVDTATYYCASDAGYDYPTHAMHYWGQGTLVTVSS VL: DIQMTQSPSSLSASVGDRVTITCRASQGISSSLAWYQQKPGQAPRLLIYGASTTQSGVPSRFSGSGSGTDFTLTISSLQPEDFATYYCQNTKVGSSYGNTFGGGTKVEIKR |
| 17.3 | – | 305LO20-SG422 (antibody) heavy: QVQLVESGGGLVQPGGSLRLSCAASGFTVHSSYYMAWVRQAPGKGLEWVGAIFTGSGAEYKAEWAKGRVTISKDTSKNQVVLTMTNMDPVDTATYYCASDAGYDYPTHAMHYWGQGTLVTVSSASTKGPSVFPLAPCSRSTSGGTAALGCLVKDYFPEPVTVSWNSGALTSGVHTFPAVLQSSGLYSLSSVVTVPSSSLGTKTYTCNVDHKPSNTKVDKRVESKYGPPCPPCPAPEFRRGPKVFLFPPKPKDTLMISRTPEVTCVVVDVSHEDPEVKFNWYVDGVEVHNAKTKPREEQYNSTYRVVSVLTVLHQDWLNGKEYKCKVSNKGLPSSIEKTISKAKGQPREPQVYTLPPSREEMTKNQVSLTCLVKGFYPSDIAVEWESNGQPENNYKTTPPVLDSDGSFFLYSKLTVDKSRWQQGNVFSCSVLHEALHAHYTRKELSLSP light: DIQMTQSPSSLSASVGDRVTITCRASQGISSSLAWYQQKPGQAPRLLIYGASETESGVPSRFSGSGSGTDFTLTISSLQPEDFATYYCQNTKVGSSYGNTFGGGTKVEIKRTVAAPSVFIFPPSDEQLKSGTASVVCLLNNFYPREAKVQWKVDNALQSGNSQESVTEQDSKDSTYSLSSTLTLSKADYEKHKVYACEVTHQGLSSPVTKSFNRGEC |
| – | no binding (tested: 20 nM and 40 nM) | eculizumab-F760G4 (antibody, human IgG4 S228P, kappa) heavy: not shown light: DIQMTQSPSSLSASVGDRVTITCGASENIYGALNWYQQKPGKAPKLLIYGATNLADGVPSRFSGSGSGTDFTLTISSLQPEDFATYYCQNVLNTPLTFGQGTKVEIKRTVAAPSVFIFPPSDEQLKSGTASVVCLLNNFYPREAKVQWKVDNALQSGNSQESVTEQDSKDSTYSLSSTLTLSKADYEKHKVYACEVTHQGLSSPVTKSFNRGEC |
